# The supplement of paper PMC5998384
# Columns and labels:
# HeLa Kyoto [1] = experiment: melting temperature (median over replicates), in situ; higher = more thermally stable
# HeLa Kyoto [2] = experiment: solubility change mitosis vs G1/S (difference of NP-40 vs SDS log2 ratios) (log2 ratio difference); higher = more soluble in mitosis
# HeLa Kyoto [3] = experiment: solubility in G1/S (NP-40 vs SDS abundance) (log2 ratio); higher = more soluble; conditions: cell cycle stage: G1/S
# HeLa Kyoto [4] = experiment: thermal stability score vs G1/S (z-score of summed log2 fold changes over temperatures); higher = more thermally stable than in G1/S
# [5] = cell cycle stage: early G1 (4.5 h after nocodazole release)
# 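Throughout, for melting temperature (median over replicates), in situ: HeLa Kyoto cells synchronized by double thymidine or nocodazole block, proteins quantified by TMT10plex mass spectrometry, three independent biological replicates.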
# 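Throughout, for solubility change mitosis vs G1/S (difference of NP-40 vs SDS log2 ratios): synchronized HeLa Kyoto cells (double thymidine block for G1/S, nocodazole release for mitosis), protein amounts in NP-40 versus SDS lysates quantified by mass spectrometry, three biological replicates.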
# 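Throughout, for solubility in G1/S (NP-40 vs SDS abundance): HeLa Kyoto cells arrested at G1/S by double thymidine block, proteins quantified by TMT10plex mass spectrometry in mild NP-40 versus SDS extracts, three biological replicates.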
# 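Throughout, for thermal stability score vs G1/S (z-score of summed log2 fold changes over temperatures): synchronized HeLa Kyoto cells, proteins quantified by TMT10plex mass spectrometry, three biological replicates, mitosis taken 0.5 h after nocodazole release, G1/S directly after double thymidine block.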
# Chain of LMO7 (chain, as listed by the source): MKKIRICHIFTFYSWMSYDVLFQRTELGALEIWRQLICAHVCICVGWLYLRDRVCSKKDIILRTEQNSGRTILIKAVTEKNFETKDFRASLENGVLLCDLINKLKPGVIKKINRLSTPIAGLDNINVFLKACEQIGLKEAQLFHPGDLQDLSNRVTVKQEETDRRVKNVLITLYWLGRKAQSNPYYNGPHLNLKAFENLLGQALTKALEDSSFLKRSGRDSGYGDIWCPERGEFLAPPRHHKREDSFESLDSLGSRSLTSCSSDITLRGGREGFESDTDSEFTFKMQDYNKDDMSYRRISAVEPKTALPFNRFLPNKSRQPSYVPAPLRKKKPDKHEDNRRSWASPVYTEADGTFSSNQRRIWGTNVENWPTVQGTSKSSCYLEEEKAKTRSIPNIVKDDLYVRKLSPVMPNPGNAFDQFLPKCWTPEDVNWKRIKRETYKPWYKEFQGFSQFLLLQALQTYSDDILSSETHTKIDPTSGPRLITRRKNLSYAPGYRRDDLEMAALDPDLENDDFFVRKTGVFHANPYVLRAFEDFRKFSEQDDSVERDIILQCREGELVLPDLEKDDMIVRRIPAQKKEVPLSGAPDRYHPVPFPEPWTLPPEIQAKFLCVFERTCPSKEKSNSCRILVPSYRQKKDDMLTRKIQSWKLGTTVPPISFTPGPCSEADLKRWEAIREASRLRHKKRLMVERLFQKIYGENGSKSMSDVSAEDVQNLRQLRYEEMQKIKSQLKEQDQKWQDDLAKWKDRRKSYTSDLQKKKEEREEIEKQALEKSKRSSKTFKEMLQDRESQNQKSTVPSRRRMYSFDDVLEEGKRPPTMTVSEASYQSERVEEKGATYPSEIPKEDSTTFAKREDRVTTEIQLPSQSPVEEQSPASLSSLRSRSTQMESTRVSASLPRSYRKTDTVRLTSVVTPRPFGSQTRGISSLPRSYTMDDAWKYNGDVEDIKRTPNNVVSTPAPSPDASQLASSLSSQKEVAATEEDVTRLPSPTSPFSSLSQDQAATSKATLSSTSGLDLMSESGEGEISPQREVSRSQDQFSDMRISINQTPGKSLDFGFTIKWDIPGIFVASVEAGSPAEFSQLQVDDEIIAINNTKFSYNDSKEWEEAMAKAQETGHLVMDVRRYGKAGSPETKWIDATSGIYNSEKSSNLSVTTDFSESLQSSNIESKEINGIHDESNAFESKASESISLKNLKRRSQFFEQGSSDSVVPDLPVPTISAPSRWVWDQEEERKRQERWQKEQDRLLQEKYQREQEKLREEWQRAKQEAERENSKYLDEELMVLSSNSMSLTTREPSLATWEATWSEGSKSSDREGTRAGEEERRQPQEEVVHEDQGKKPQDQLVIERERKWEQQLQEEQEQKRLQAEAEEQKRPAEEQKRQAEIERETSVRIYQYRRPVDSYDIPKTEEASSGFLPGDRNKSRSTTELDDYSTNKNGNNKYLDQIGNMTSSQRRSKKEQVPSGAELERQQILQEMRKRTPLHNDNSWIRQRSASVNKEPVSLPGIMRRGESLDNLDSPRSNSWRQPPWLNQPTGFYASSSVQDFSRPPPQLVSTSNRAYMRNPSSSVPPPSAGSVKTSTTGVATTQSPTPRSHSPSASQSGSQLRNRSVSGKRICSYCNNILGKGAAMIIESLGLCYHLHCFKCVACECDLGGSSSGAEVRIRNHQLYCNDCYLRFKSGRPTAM
Substance,melting temperature (HeLa Kyoto [1]; cell cycle stage: G1/S),melting temperature (HeLa Kyoto [1]; cell cycle stage: mitosis),solubility change mitosis (log2) (HeLa Kyoto [2]),solubility in G1/S (log2) (HeLa Kyoto [3]),thermal stability score (HeLa Kyoto [4]; [5]),thermal stability score (HeLa Kyoto [4]; cell cycle stage: mitosis)
MEMEQEKMTMNKELSPDAAAYCCSACHGDETWSYNHPIRGRAKSRSLSASPALGSTKEFRRTRSLHGPCPVTTFGPKACVLQNPQTIMHIQDPASQRLTWNKSPKSVLVIKKMRDASLLQPFKELCTHLMEENMIVYVEKKVLEDPAIASDESFGAVKKKFCTFREDYDDISNQIDFIICLGGDGTLLYASSLFQGSVPPVMAFHLGSLGFLTPFSFENFQSQVTQVIEGNAAVVLRSRLKVRVVKELRGKKTAVHNGLGENGSQAAGLDMDVGKQAMQYQVLNEVVIDRGPSSYLSNVDVYLDGHLITTVQGDGVIVSTPTGSTAYAAAAGASMIHPNVPAIMITPICPHSLSFRPIVVPAGVELKIMLSPEARNTAWVSFDGRKRQEIRHGDSISITTSCYPLPSICVRDPVSDWFESLAQCLHWNVRKKQAHFEEEEEEEEEG [NADK],61.1 °C,59.2 °C,0.129,0.208,-6.99,-2.68
MVMEKPSPLLVGREFVRQYYTLLNKAPEYLHRFYGRNSSYVHGGVDASGKPQEAVYGQNDIHHKVLSLNFSECHTKIRHVDAHATLSDGVVVQVMGLLSNSGQPERKFMQTFVLAPEGSVPNKFYVHNDMFRYEDEVFGDSEPELDEESEDEVEEEQEERQPSPEPVQENANSGYYEAHPVTNGIEEPLEESSHEPEPEPESETKTEELKPQVEEKNLEELEEKSTTPPPAEPVSLPQEPPKAFSWASVTSKNLPPSGTVSSSGIPPHVKAPVSQPRVEAKPEVQSQPPRVREQRPRERPGFPPRGPRPGRGDMEQNDSDNRRIIRYPDSHQLFVGNLPHDIDENELKEFFMSFGNVVELRINTKGVGGKLPNFGFVVFDDSEPVQRILIAKPIMFRGEVRLNVEEKKTRAARERETRGGGDDRRDIRRNDRGPGGPRGIVGGGMMRDRDGRGPPPRGGMAQKLGSGRGTGQMEGRFTGQRR [G3BP2],51.7 °C,50.4 °C,0.158,-0.124,-0.995,-2.86
LMO7,51 °C,51.1 °C,0.694,-1.14,3.45,3.47
MERQVLLSEPEEAAALYRGLSRQPALSAACLGPEVTTQYGGQYRTVHTEWTQRDLERMENIRFCRQYLVFHDGDSVVFAGPAGNSVETRGELLSRESPSGTMKAVLRKAGGTGPGEEKQFLEVWEKNRKLKSFNLSALEKHGPVYEDDCFGCLSWSHSETHLLYVAEKKRPKAESFFQTKALDVSASDDEIARLKKPDQAIKGDQFVFYEDWGENMVSKSIPVLCVLDVESGNISVLEGVPENVSPGQAFWAPGDAGVVFVGWWHEPFRLGIRFCTNRRSALYYVDLIGGKCELLSDDSLAVSSPRLSPDQCRIVYLQYPSLIPHHQCSQLCLYDWYTKVTSVVVDVVPRQLGENFSGIYCSLLPLGCWSADSQRVVFDSAQRSRQDLFAVDTQVGTVTSLTAGGSGGSWKLLTIDQDLMVAQFSTPSLPPTLKVGFLPSAGKEQSVLWVSLEEAEPIPDIHWGIRVLQPPPEQENVQYAGLDFEAILLQPGSPPDKTQVPMVVMPHGGPHSSFVTAWMLFPAMLCKMGFAVLLVNYRGSTGFGQDSILSLPGNVGHQDVKDVQFAVEQVLQEEHFDASHVALMGGSHGGFISCHLIGQYPETYRACVARNPVINIASMLGSTDIPDWCVVEAGFPFSSDCLPDLSVWAEMLDKSPIRYIPQVKTPLLLMLGQEDRRVPFKQGMEYYRALKTRNVPVRLLLYPKSTHALSEVEVESDSFMNAVLWLRTHLGS [APEH],58.5 °C,59.4 °C,-0.0981,0.11,-2.58,-2.38
MSWMFKRDPVWKYLQTVQYGVHGNFPRLSYPTFFPRFEFQDVIPPDDFLTSDEEVDSVLFGSLRGHVVGLRYYTGVVNNNEMVALQRDPNNPYDKNAIKVNNVNGNQVGHLKKELAGALAYIMDNKLAQIEGVVPFGANNAFTMPLHMTFWGKEENRKAVSDQLKKHGFKLGPAPKTLGFNLESGWGSGRAGPSYSMPVHAAVQMTTEQLKTEFDKLFEDLKEDDKTHEMEPAEAIETPLLPHQKQALAWMVSRENSKELPPFWEQRNDLYYNTITNFSEKDRPENVHGGILADDMGLGKTLTAIAVILTNFHDGRPLPIERVKKNLLKKEYNVNDDSMKLGGNNTSEKADGLSKDASRCSEQPSISDIKEKSKFRMSELSSSRPKRRKTAVQYIESSDSEEIETSELPQKMKGKLKNVQSETKGRAKAGSSKVIEDVAFACALTSSVPTTKKKMLKKGACAVEGSKKTDVEERPRTTLIICPLSVLSNWIDQFGQHIKSDVHLNFYVYYGPDRIREPALLSKQDIVLTTYNILTHDYGTKGDSPLHSIRWLRVILDEGHAIRNPNAQQTKAVLDLESERRWVLTGTPIQNSLKDLWSLLSFLKLKPFIDREWWHRTIQRPVTMGDEGGLRRLQSLIKNITLRRTKTSKIKGKPVLELPERKVFIQHITLSDEERKIYQSVKNEGRATIGRYFNEGTVLAHYADVLGLLLRLRQICCHTYLLTNAVSSNGPSGNDTPEELRKKLIRKMKLILSSGSDEECAICLDSLTVPVITHCAHVFCKPCICQVIQNEQPHAKCPLCRNDIHEDNLLECPPEELARDSEKKSDMEWTSSSKINALMHALTDLRKKNPNIKSLVVSQFTTFLSLIEIPLKASGFVFTRLDGSMAQKKRVESIQCFQNTEAGSPTIMLLSLKAGGVGLNLSAASRVFLMDPAWNPAAEDQCFDRCHRLGQKQEVIITKFIVKDSVEENMLKIQNKKRELAAGAFGTKKPNADEMKQAKINEIRTLIDL [HLTF],48.9 °C,50.2 °C,-0.0719,-0.124,2.36,4.68
MATSNLLKNKGSLQFEDKWDFMRPIVLKLLRQESVTKQQWFDLFSDVHAVCLWDDKGPAKIHQALKEDILEFIKQAQARVLSHQDDTALLKAYIVEWRKFFTQCDILPKPFCQLEITLMGKQGSNKKSNVEDSIVRKLMLDTWNESIFSNIKNRLQDSAMKLVHAERLGEAFDSQLVIGVRESYVNLCSNPEDKLQIYRDNFEKAYLDSTERFYRTQAPSYLQQNGVQNYMKYADAKLKEEEKRALRYLETRRECNSVEALMECCVNALVTSFKETILAECQGMIKRNETEKLHLMFSLMDKVPNGIEPMLKDLEEHIISAGLADMVAAAETITTDSEKYVEQLLTLFNRFSKLVKEAFQDDPRFLTARDKAYKAVVNDATIFKLELPLKQKGVGLKTQPESKCPELLANYCDMLLRKTPLSKKLTSEEIEAKLKEVLLVLKYVQNKDVFMRYHKAHLTRRLILDISADSEIEENMVEWLREVGMPADYVNKLARMFQDIKVSEDLNQAFKEMHKNNKLALPADSVNIKILNAGAWSRSSEKVFVSLPTELEDLIPEVEEFYKKNHSGRKLHWHHLMSNGIITFKNEVGQYDLEVTTFQLAVLFAWNQRPREKISFENLKLATELPDAELRRTLWSLVAFPKLKRQVLLYEPQVNSPKDFTEGTLFSVNQEFSLIKNAKVQKRGKINLIGRLQLTTERMREEENEGIVQLRILRTQEAIIQIMKMRKKISNAQLQTELVEILKNMFLPQKKMIKEQIEWLIEHKYIRRDESDINTFIYMA [CUL5],55.6 °C,54 °C,-0.233,-0.152,-0.282,-0.5
